Data reported in patent US20170022287A1.
Positions count from the first letter of the chain named. Values belong to the binder of their own block, whether it stands above or below them.

How the values were obtained:
[1] = biological target: full-length human CD137-Fc fusion protein (human); test: ELISA, coated CD137-Fc protein 2 µg/mL, antibody 10 or 5 µg/mL, absorbance 620 nm; Non (uncoated well) 0.202
[2] = biological target: full-length human CD137-Fc fusion protein (human); test: ELISA, coated CD137-Fc protein 2 µg/mL, antibody 10 or 5 µg/mL; absorbance 620 nm divided by that of the uncoated well
CRD1-3 [3] = test: ELISA, coated CD137-Fc protein 2 µg/mL, antibody 10 or 5 µg/mL, absorbance 620 nm; Non (uncoated well) 0.065
CRD1-3 [4] = test: ELISA, coated CD137-Fc protein 2 µg/mL, antibody 10 or 5 µg/mL; absorbance 620 nm divided by that of the uncoated well
CRD1-3 [5] = test: ELISA, coated CD137-Fc protein 2 µg/mL, antibody 10 or 5 µg/mL, absorbance 620 nm; Non (uncoated well) 1.146
CRD1 [6] = test: as above
CRD3-4 [7] = test: as above
CRD2-4 [8] = test: as above
CRD2-3 [9] = test: as above
CRD1-2 [10] = test: as above
CRD1 [11] = test: ELISA, coated CD137-Fc protein 2 µg/mL, antibody 10 or 5 µg/mL; absorbance 620 nm divided by that of the uncoated well
CRD3-4 [12] = test: as above
CRD2-4 [13] = test: as above
CRD2-3 [14] = test: as above
CRD1-2 [15] = test: as above
CRD1-3 [16] = test: ELISA, coated CD137-Fc protein 2 µg/mL, antibody 10 or 5 µg/mL, absorbance 620 nm; Non (uncoated well) 1.114
[17] = biological target: full-length human CD137-Fc fusion protein (human); test: as above
CRD3-4 [18] = test: as above
CRD2-4 [19] = test: as above
CRD2-3 [20] = test: as above
CRD1-3 [21] = test: ELISA, coated CD137-Fc protein 2 µg/mL, antibody 10 or 5 µg/mL, absorbance 620 nm; Non (uncoated well) 2.0265
CRD1 [22] = test: as above
CRD3-4 [23] = test: as above
CRD2-4 [24] = test: as above
CRD2-3 [25] = test: as above
CRD1-2 [26] = test: as above
CRD1-3 [27] = test: ELISA, coated CD137-Fc protein 2 µg/mL, antibody 10 or 5 µg/mL, absorbance 620 nm; Non (uncoated well) 2.2055
CRD1 [28] = test: as above
CRD3-4 [29] = test: as above
CRD2-4 [30] = test: as above
CRD2-3 [31] = test: as above
CRD1-2 [32] = test: as above

Chain of full-length human CD137-Fc fusion protein (human) (chain, as listed by the source limits assumed): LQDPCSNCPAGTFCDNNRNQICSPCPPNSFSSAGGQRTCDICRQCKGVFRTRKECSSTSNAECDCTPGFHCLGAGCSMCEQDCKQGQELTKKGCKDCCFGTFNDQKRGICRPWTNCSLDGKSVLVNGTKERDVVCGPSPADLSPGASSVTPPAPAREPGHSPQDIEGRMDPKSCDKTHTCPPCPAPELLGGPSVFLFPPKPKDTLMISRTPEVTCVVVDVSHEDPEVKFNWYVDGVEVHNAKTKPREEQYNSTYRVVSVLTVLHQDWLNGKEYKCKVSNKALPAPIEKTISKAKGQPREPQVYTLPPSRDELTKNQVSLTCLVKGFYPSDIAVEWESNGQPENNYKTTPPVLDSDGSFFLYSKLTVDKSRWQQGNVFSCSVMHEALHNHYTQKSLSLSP
Chain of CRD2-3 (chain, as listed by the source limits assumed): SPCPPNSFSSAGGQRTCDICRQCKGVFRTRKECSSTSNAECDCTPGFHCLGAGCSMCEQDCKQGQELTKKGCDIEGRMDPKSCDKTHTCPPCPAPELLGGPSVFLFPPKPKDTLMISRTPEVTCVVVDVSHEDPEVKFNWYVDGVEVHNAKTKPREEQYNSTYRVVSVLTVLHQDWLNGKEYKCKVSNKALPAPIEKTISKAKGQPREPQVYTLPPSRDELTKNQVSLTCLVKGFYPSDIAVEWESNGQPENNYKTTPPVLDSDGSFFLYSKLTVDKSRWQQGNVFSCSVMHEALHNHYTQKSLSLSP
Chain of CRD1 (chain, as listed by the source limits assumed): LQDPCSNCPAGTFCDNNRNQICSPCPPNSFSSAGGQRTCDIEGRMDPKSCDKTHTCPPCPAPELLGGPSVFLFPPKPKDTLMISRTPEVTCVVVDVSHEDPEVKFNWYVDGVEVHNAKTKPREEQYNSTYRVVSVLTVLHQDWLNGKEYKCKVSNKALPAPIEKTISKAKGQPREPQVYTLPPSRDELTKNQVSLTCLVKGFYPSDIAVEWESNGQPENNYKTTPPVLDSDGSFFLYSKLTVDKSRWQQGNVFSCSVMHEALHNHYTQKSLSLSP
Chain of CRD2-4 (chain, as listed by the source limits assumed): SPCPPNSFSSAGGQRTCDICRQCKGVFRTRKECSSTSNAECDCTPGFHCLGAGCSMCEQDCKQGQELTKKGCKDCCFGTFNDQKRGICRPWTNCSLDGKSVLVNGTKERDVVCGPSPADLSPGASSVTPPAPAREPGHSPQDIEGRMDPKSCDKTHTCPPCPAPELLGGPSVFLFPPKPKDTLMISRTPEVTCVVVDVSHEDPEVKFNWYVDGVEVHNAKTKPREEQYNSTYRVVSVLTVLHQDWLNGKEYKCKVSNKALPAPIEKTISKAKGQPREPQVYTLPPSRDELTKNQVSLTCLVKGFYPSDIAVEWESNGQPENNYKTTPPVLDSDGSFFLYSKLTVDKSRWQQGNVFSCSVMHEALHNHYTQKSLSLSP
Chain of CRD1-2 (chain, as listed by the source limits assumed): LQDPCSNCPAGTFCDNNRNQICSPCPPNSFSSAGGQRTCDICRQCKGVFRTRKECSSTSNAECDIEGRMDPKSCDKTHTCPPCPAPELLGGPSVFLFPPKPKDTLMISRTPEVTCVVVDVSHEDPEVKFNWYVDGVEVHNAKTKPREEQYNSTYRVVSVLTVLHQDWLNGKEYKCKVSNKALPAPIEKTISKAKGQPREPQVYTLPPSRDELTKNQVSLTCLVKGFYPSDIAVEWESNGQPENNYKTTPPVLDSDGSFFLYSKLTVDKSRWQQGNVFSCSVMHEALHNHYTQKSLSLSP
Chain of CRD1-3 (chain, as listed by the source limits assumed): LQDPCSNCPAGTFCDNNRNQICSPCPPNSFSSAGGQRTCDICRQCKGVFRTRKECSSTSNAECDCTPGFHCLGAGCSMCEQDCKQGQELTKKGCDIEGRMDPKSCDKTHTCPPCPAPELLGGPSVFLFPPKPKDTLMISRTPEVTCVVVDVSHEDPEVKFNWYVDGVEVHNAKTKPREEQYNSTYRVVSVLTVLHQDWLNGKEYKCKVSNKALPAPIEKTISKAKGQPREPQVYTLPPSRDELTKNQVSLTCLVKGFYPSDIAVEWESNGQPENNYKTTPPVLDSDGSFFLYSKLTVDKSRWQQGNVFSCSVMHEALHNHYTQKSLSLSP
Chain of CRD3-4 (chain, as listed by the source limits assumed): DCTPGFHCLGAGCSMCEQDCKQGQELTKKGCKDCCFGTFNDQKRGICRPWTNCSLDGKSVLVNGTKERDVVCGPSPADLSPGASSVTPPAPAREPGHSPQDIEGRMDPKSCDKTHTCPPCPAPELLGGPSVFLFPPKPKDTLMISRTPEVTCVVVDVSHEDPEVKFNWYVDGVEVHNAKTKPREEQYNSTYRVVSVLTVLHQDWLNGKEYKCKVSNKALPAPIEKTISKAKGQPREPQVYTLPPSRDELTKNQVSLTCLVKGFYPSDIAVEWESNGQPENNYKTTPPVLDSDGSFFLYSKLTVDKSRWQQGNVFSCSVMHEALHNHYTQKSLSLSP

- ELISA color development level [1]: 0.205
- Ratio with respect to Non-Coating [2]: 1
B1: R2 (antibody, V domains shown)
VH: EVQLQESGPGLVKPSETLSLTCTVSGGSISSSSYYWGWIRQPPGKGLEWIGSIHYTGSTYYNPSLKSRVTISVDTSKNQFSLKLSSVTAADTAVYYCARLNPSIAARPGAFDIWGQGTMVTVSS
VL: QSVLTQPPSVSAAPGQKVTISCSGSSSNIANNFVSWFQQLPGTAPKLLIYDNNKRPSGIPDRFSGSKSGTSATLGITGLQTGDEADYYCGTWDRSLSAGVFGGGTKVTVL

- ELISA color development level (CRD1-3 [3]): 0.473
- Ratio with respect to Non-Coating (CRD1-3 [4]): 7.3
B2: R1 (antibody, V domains shown)
VH: EVQLVQSGAEVKKPGASVKVSCKASGYTFTSYYTHWVRQAPGQGLEWMGIINPSGGSTSYAQKFQGRVTMTRDTSTSTVYMELSSLRSEDTAVYYCARGAPEYSSSSDYWGQGTMVTVSS
VL: QSALTQPASVSGSPGQSITISCTGTSSDVGGYNYVSWYQQHPGKAPKLMIYDVSNRPSGVSNRFSGSKSGNTASLTISGLQAEDEADYYCSSYTSSSTRWVFGGGTKLTVL

- ELISA color development level (CRD1-3 [5]): 0.787
- ELISA color development level (CRD1 [6]): 0.601
- ELISA color development level (CRD3-4 [7]): 0.26
- ELISA color development level (CRD2-4 [8]): 0.455
- ELISA color development level (CRD2-3 [9]): 0.555
- ELISA color development level (CRD1-2 [10]): 0.45
- Ratio with respect to Non-Coating (CRD1-3 [4]): 0.7
- Ratio with respect to Non-Coating (CRD1 [11]): 0.5
- Ratio with respect to Non-Coating (CRD3-4 [12]): 0.2
- Ratio with respect to Non-Coating (CRD2-4 [13]): 0.4
- Ratio with respect to Non-Coating (CRD2-3 [14]): 0.5
- Ratio with respect to Non-Coating (CRD1-2 [15]): 0.4
B3: R13 (antibody, V domains shown)
VH: QVQLVESGGGLVQPGGSLRLSCAASGFTFSYYDIQWVRQAPGKGLEWVSSISPSGQSTYYRREVKGRFTISRDNSKNTLYLQMNSLRAEDTAVYYCARRTGREYGGGWYFDYWGQGTLVTVSS
VL: DIQMTQSPSSLSASVGDRVTITCRASQSISSYLNWYQQKPGKAPKLLIYAASSLQSGVPSRFSGSGSGTDFTLTISSLQPEDFATYYCQQFSRFPLTFGGGTKVEIK

- Ratio with respect to Non-Coating (CRD1-3 [4]): 2
- Ratio with respect to Non-Coating [2]: 1.9
- Ratio with respect to Non-Coating (CRD3-4 [12]): 2.3
- Ratio with respect to Non-Coating (CRD2-4 [13]): 2
- Ratio with respect to Non-Coating (CRD2-3 [14]): 2.2
- ELISA color development level (CRD1-3 [16]): 2.25
- ELISA color development level [17]: 2.09
- ELISA color development level (CRD3-4 [18]): 2.52
- ELISA color development level (CRD2-4 [19]): 2.23
- ELISA color development level (CRD2-3 [20]): 2.42
B4: R8 (antibody, V domains shown)
VH: QVQLQESGPGLVKPSETLSLTCAVSGYSISSGYYWGWIRQPPGKGLEWIGSIYHSGSTYYNPSLKSRVTISVDTSKNQFSLKLSSVTAADTAVYYCARQHSFTRYYGYYYFDYWGQGTTVTVSS
VL: B3 VL with Q89L, F91S, S92D, R93S, F94I

- Ratio with respect to Non-Coating (CRD1-3 [4]): 1.2
- Ratio with respect to Non-Coating (CRD1 [11]): 0.9
- Ratio with respect to Non-Coating (CRD3-4 [12]): 1.4
- Ratio with respect to Non-Coating (CRD2-4 [13]): 1.1
- Ratio with respect to Non-Coating (CRD2-3 [14]): 1.3
- Ratio with respect to Non-Coating (CRD1-2 [15]): 0.8
- ELISA color development level (CRD1-3 [21]): 2.45
- ELISA color development level (CRD1 [22]): 1.82
- ELISA color development level (CRD3-4 [23]): 2.88
- ELISA color development level (CRD2-4 [24]): 2.3
- ELISA color development level (CRD2-3 [25]): 2.73
- ELISA color development level (CRD1-2 [26]): 1.69
B5: R11 (antibody, V domains shown)
VH: QVQLLESGGGLVQPGGSLRLSCAASGFTFSSYAMSWVRQAPGKGLEWVSAISGSGGSTYYADSVKGRFTISRDNSKNTLYLQMNSLRAEDTAVYYCARDKWYYYPALDYWGQGTLVTVSS
VL: B3 VL

- Ratio with respect to Non-Coating (CRD1-3 [4]): 1.1
- Ratio with respect to Non-Coating (CRD1 [11]): 0.7
- Ratio with respect to Non-Coating (CRD3-4 [12]): 1.3
- Ratio with respect to Non-Coating (CRD2-4 [13]): 1
- Ratio with respect to Non-Coating (CRD2-3 [14]): 1.2
- Ratio with respect to Non-Coating (CRD1-2 [15]): 0.8
- ELISA color development level (CRD1-3 [27]): 2.42
- ELISA color development level (CRD1 [28]): 1.64
- ELISA color development level (CRD3-4 [29]): 2.76
- ELISA color development level (CRD2-4 [30]): 2.21
- ELISA color development level (CRD2-3 [31]): 2.72
- ELISA color development level (CRD1-2 [32]): 1.7
B6: R14 (antibody, V domains shown)
VH: B5 VH
VL: B3 VL with Q89L, F91V, S92Y, F94S
